Measurements taken from publication PMC7611776.

Experiments:
[1] = target: HIV-1 Gag polyprotein, uncleaved, in immature virus particles (MA domain of Gag) (HIV-1); assay: cryo-EM structure
[2] = target: HIV-1 matrix protein (MA), cleaved, in mature cHIV particles (HIV-1); assay: cryo-EM structure

Substance | stoichiometry N [1] | stoichiometry N [2]
HIV-1 Gag polyprotein, uncleaved, in immature virus particles (MA domain of Gag) (natural protein) | 3 | –
HIV-1 matrix protein (MA), cleaved, in mature cHIV particles (natural protein) | – | 3
